B1: M2C10 (antibody, V domains shown)
VH: QVQLVESGGGVVQPGRSLRLSCAASGFTFNNYAMHWVRQAPGKGLEWVALISDDGSKKYFADALKGRFTIFRDNSKNTLYLQMNSLRAEDTAVYYCARDPTPLGEYYFDYWGQGTLVTVSS
VL: DIQMTQSPSSLSASVGDRVTITCRASQTISGYLNWYQQKPGKAPNLLIYTASSLESGVPSRFSGSGSETDFTLTISSLQPEDFATYYCQQSYRMPLTFGGGTRVSLK
notes: IgG
B2: M1A11 (antibody, V domains shown)
VH: QLQLQESGPGLVKPSETLSLTCTVSGDSISSSSFYWGWIRQPPGKGLEWIATIYYTGSTEYNPSLKSRISISVDTSMNQFSLRLRSVTAADTAVYYCARQEGSSWSNWFDPWGQGTLVTVSS
VL: DIQMTQSPSSLSASVGDRVTITCRASQSISTYLNWYQQKPGKAPKLLIYVASSLQSGVPSRFSGSGSGTDFTLTISSLQPEDFATYYCQQGYSIPWTFGHGTKVEIK
notes: IgG; also called MIA11
B3: M3A04 (antibody, V domains shown)
VH: QVQLVESGGGVVQPGRSLRLSCAASGLTFSTYVMHWVRQAPGKGLEWVAVISYDGTNEHYADSVKGRFTISRDNSKNTLYLQMNSLRPEDTAVYYCARGTADYDVWSGSAWGGFDYWGQGTLVTVSS
VL: DIQMTQSPSSLSASVGDRVTITCRASQSISSYLNWYQQKPGKAPKLLMYTVSSLPSGVPSRFSGSGSGTDFTLTISSLQPEDFATYYCQQSYNIPYTFGQGTKLEIK
notes: IgG
B4: M3B04 (antibody, V domains shown)
VH: QVQLQESGPGLVKPSETVSLTCTVSGGSISSNNWWSWVRQSPGKGLEWIGEIYHSGSTNFNPSLKSRVTISVDKSKNHFSLKLGSLTAADTAVYYCARRPNDYGDYSYYYYYYMDVWGKGTTVTVSS
VL: EIVLTQSPATLSLSPGESATLSCRASQSINRNLAWYQQKPGQAPRLLIYDASNRATGIPARFSGSGSGTDFTLTISSLEPEDFAVYYCQQRSHWVTFGQGTRLEIK
notes: IgG
B5: M3A03 (antibody, V domains shown)
VH: QVQLVQSGAEVKKPGASVKVSCKASAYTFTSYGITWVRQAPGQGLEWMGWISAYRGNTKYAQKLQGRVTMTTDTSTSTASMELRSLRSDDTAVYYCARTSYYDSSYYPIDYWGQGTLVTVSS
VL: SYVLTQPPSVSVAPGQTARITCGGNNIGSKSVQWYQQKPGQAPVLVVYDDSDRPSGIPERFSGSNSGNTATLTISRVEAGDEADYYCQVWDSSGDRVVFGGGTKLTVL
notes: IgG
B6: M3B12 (antibody, V domains shown)
VH: QVQLVESGGGVVQPGGSLRLSCAASGFTFSSYGMHWVRQAPGKGLEWVAFIRYDGSNKYYADSVKGRFTISRDNSKNTLYLQMNSLRAEDTAVYYCAKDSGSYYYYYYMDVWGKGTTVTVSS
VL: not shown
notes: IgG
B7: M2D02 (antibody, V domains shown)
VH: QVQLVQSGAEVKKPGSSVKVSCKASGGTLTRYTISWVRQAPGQGLEWMGRIIPFLDIANYAPRFQGRVTMTADKSTSTAYMELSSLTSQDTAIYYCARDHSGNYFDLWGQGTLVTVSS
VL: EIVMTQSPATLSVSPGERATLSCRASQSVTSNLAWYQRKPGQAPRLLIYGASTGATDIPGRFSGSGSGTEFTLTISGLQSEDFAVYYCQQYDHWPRTFGQGTKVEIK
notes: IgG
B8: M2E08 (antibody, V domains shown)
VH: EVQLVESGGDLVLPGGSLRLSCEASGFMFSSYAMNWVRQAPGKGLERVSGISGSGGNTYYADSVKGRFTISRDNSKNIVYLQMNSLRAEDTAVYYCAKDLGNDYFYYIDVWGKGTTVMVSS
VL: QSVLTQPPSVSGAPGQRVTISCTGTNFNIGAGYDVQWYQQLPGAAPKLLIHGNTYRPSGVPDRFSGSKSGTSASLAITGLQAEDEADYYCQSYDSSLSMVFGGGTKLTVL
notes: IgG
B9: M3D03 (antibody, V domains shown)
VH: QVQLVQSGAEVKKPGASVKVSCKASGYTFTSYGISWVRQAPGQGLEWMGWISAYNGNTNYAQKLQGRVTMTTDTSTSTAYMELRSLRSDDTAVYYCARDAPFGRDDGYGMDVWGQGTTVTVSS
VL: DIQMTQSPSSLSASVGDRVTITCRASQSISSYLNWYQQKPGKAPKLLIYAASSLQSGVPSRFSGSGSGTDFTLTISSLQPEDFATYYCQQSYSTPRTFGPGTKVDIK
notes: IgG
B10: M2B04 (antibody, V domains shown)
VH: QVQLVQSGPEVKKPGASVKVSCKASGYSITTYGIDWVRQAPGQGLEWIGWSSAHTGNTNYAEKFQGRVTMTTDTSTYTTYMELRSLKSDDTAVYYCAMGAYTSSRNWFDPWGQGTLVIVSS
VL: EIVLTQSPATLSLSPGERATLSCRASQNINNFLAWYQQKAGQAPRLLIYDASNRATGIPGRFSGSGSGTDFTLTISSLEPEDFAVYYCQQRANWPLTFGGGTKVEVK
notes: IgG
B11: M3E09 (antibody, V domains shown)
VH: EVQLVESGGGVVRPGGSLRLSCAASGFRFDDYAMNWVRQAPGKGLEWVSGINWIGGTTKYADSVKGRFTISRDNTKNSLYLQMNSLRAEDTALYYCARGVGYYYYYMDVWGRGTTVTVSS
VL: EIVLTQSPGTLSLSPGERATLSCRATQSVSSNYLAWYQQKPGQAPRLLIYDASSRAIGIPDRFSGSGSGTDFTLTISRLESEDFAVYYCQQYGSSPETFGQGTKVEIK
notes: IgG
B12: M3A12 (antibody, V domains shown)
VH: QVQLQESGPQLVKPSQTLSLTCTVSGDSISSSDYCWSWIRQSPGKGLEWIGHSVYSGDTQYNPSLKSRLSISVDTSKNQFSLRLRSVTAADTAVYYCARGNDFWSGSFDYWGQGALVIVSS
VL: DIQMTQSPSSLSASVGDRVTITCRASQSIGTYLNWYQQKPGKAPKVLIYAASSLQSGVPSRFSGRGSGTDFTLTVSSLQPEDFASYYCQQSYTKPYTFGQGTKLEIK
notes: IgG
B13: M2E11L (antibody, V domains shown)
VH: QVQLVQSGAIMKKPGSSVKVSCKASGGTFTNFAFSWVRQAPGQGLEWMGGIIPFVGPANYAPQFQGRVTITADESTTTAYMELNSLRSEDTAVYYCARVRGFGETAYFYHYYMDVWGKGTTVTVSS
VL: QTVVTQEPSLSVSPGGTVTLTCGLSSGSVSTSHFPSWYQQIPGQPPRTLIYSTITRSSGVPDRFSGSILGNKATLTITGAQADDECDYYCVLYLGGGIPHWVFGGGTKLTVL
B14: M2E07 (antibody, V domains shown)
VH: EVQLVESGGGLVQTGGSLRLACAASGFTFSSYAMSWVRQAPGKGLEWVSTITESGDDAYYADSVKGRLTISRDNSKNTLFLHLNGLRSEDTARYYCAKDMGLYKSSWYGNFFYYYYMDVWGEGTTVTVSS
VL: QSALTQPASVSGSPGQSITISCTGSSSNIGSFDLISWYQQHPGKAPKFIIYEGDKRPSGVSYRFSGSKSGSTASLTISGLQAEDEAYYYCCSYARSRTLVFGGGTKVTVL
notes: IgG
B15: M2E01 (antibody, V domains shown)
VH: QLQLQESGPGLVKPSETLSLTCTVSGGSISSSTYYWGWIRQPPGKGLEWIGTIYYSGSTDYNPSLKSRLTISVDTSKNQFSLRLRSVTAADTAVYYCARLVSPYDQFDYWGQGTLVTVSS
VL: DIQMTQSPSSLSASVGDRVTITCRASQTITTYLSWYLQKPGKAPKLLIYAASSWQSGVPSRFSGSGSGTDFTLTISSLQPEDFATYYCQQSYSTPYTFGQGTKLEIK
notes: IgG
B16: M2E04 (antibody, V domains shown)
VH: QVQLQESGPGLVKPSEILSLTCTVSRFSINSGYYWGWIRQPPGKGLEWIGCISHAGSIYSNPSLESRVTLSLDTSKNQFSLKLTSVIAADTATYYCAASSNWHNALEYWGQGTLVVVSS
VL: QSVLTQPPSASGTPGQTVTISCSGSRSNMGINWVYWYQQLPGTAPKLVIYRNSQRPSGVPDRFSGSQSGTSASLAISGLRSEDEAVYYCAVWDDSLDGRLFGGGTKLTVL
notes: IgG
B17: M2E05 (antibody, V domains shown)
VH: QVQLQESGPGLVKPSEILSLTCTVSRYSINSGYYWGWIRQPPGKGLEWVGCVSHAGVTYYNPSLESRVAVSLDTSKNQFSLKMTSVSAADTAMYYCAASSNWHNALEYWGQGTLVAVSS
VL: QSVLTQPPSASGTPGQSVTISCSGSSSNMGINWVYWYQQLPGTAPKLLIYRNSQRPSGVPDRFSGSQSGTSASLAISGLRSEDEGHYYCAVWDDVVSGRLFGGGTKLTVL
notes: IgG

How the values were obtained:
[1] = molecular target: T1, Processed stabilized hMPV PreF trimer (115BV) (human metapneumovirus, strain B2); assay: BLI, ratio to unprocessed PreF trimer
T1 construct: also called Processed hMPV PreF trimer; processed PreF

[2] = molecular target: T1, Processed stabilized hMPV PreF trimer …; assay: BLI, mAb on anti-human Fc sensor
hMPV PostF trimer = molecular target: T2, hMPV PostF trimer (human metapneumovirus, strain B2); assay: BLI, mAb on anti-human Fc sensor
T2 construct: also called MPV PostF (dPFv1)

[3] = molecular target: T3, Unprocessed hMPV PreF trimer (human metapneumovirus, strain B2); assay: BLI, mAb on anti-human Fc sensor
T3 construct: also called Unprocessed hMPV WT PreF trimer; unprocessed hMPV PreF trimeric antigen

Binder	processed/unprocessed PreF trimer binding ratio [1]	Octet binding response [2]	Octet binding response (hMPV PostF trimer)	Octet binding response [3]
B1	0.25	0.0939 nm	-0.0261 nm	0.382 nm
B2	0.15	0.0515 nm	0.0143 nm	0.342 nm
B3	0.23	0.0846 nm	-0.0261 nm	0.373 nm
B4	0.17	0.0297 nm	0.446 nm	0.177 nm
B5	0.23	0.0409 nm	0.568 nm	0.181 nm
B6	0.07	0.0102 nm	0.417 nm	0.157 nm
B7	0.22	0.0468 nm	0.541 nm	0.216 nm
B8	0.22	0.0781 nm	-0.0233 nm	0.349 nm
B9	0.12	0.0286 nm	-0.054 nm	0.242 nm
B10	0.38	0.125 nm	0.0152 nm	0.328 nm
B11	0.42	0.0948 nm	-0.0506 nm	0.226 nm
B12	0.25	0.0766 nm	0.0469 nm	0.31 nm
B13	0.49	0.162 nm	0.0538 nm	0.332 nm
B14	0.22	0.0476 nm	0.0137 nm	0.216 nm
B15	0.31	0.126 nm	-0.016 nm	0.408 nm
B16	0.51	0.199 nm	0.0702 nm	0.391 nm
B17	0.54	0.228 nm	0.0401 nm	0.426 nm
